Results reported in patent US6060588, “Bap-1 proteins” (COR Therapeutics, Inc., dated 2000).

Biological target: GAL4 DNA binding protein only (pGBT9) (Saccharomyces cerevisiae (strain ATCC …, UniProt P04386))
Assay: yeast two-hybrid, mating with control baits

B1: clone 126-2 (partial cDNA of the mouse homologue of Bap-1, fused to the VP16 activation domain) (other)
chain: SGAEDNGDSSHCSNASTHSNQEAGPSNKRTKTSDDSGLDLDNNNAGVAIDPVMDGASEIELVFRPHPTLMEKDDSAQTRYIKTSGNATVDHLSKYLAVRLALEELRSKV
B1: no binding.
